We go through one compound from patent US8754043B2, “Epidermal growth factor compositions” (Bharat Biotech International Limited, priority 2005, dated 2014).

The test system of one series is rabbits. Nature of the series: Pre-clinical safety studies (acute 8 days, sub-acute 30 days) in rabbits. In kind it is in vivo. As to the method:
(§1) Various combinations of EGF were thus carried out and the combinations were subjected to thermal stability as per ICH guidelines. Pre-clinical studies for safety of the formulations with varying percentages of EGF, were conducted in both rats and rabbits, as per the approved guidelines. Briefly, acute toxicity studies were carried out for 8 days, sub-acute studies were carried on for 30 days and ocular irritation study was conducted for 7 days.

The test system of another series is rats. Nature of the series: Pre-clinical safety studies (acute 8 days, sub-acute 30 days) in rats. In kind it is in vivo. On the procedure:
as §1

For the compound `CC[C@H](C)[C@@H]1NC(=O)[C@H](Cc2ccc(O)cc2)NC(=O)CNC(=O)[C@H](C(C)C)NC(=O)[C@H](C(C)C)NC(=O)[C@@H](NC(=O)[C@H](CC(N)=O)NC(=O)[C@@H]2CSSC[C@@H]3NC(=O)[C@H](Cc4ccc(O)cc4)NC(=O)CNC(=O)[C@H](CC(=O)O)NC(=O)[C@H](Cc4c[nH]cn4)NC(=O)[C@H](CO)NC(=O)[C@H](CC(C)C)NC(=O)[C@@H]4CCCN4C(=O)[C@@H](NC(=O)[C@H](CCC(=O)O)NC(=O)[C@H](CO)NC(=O)[C@H](CC(=O)O)NC(=O)[C@H](CO)NC(=O)[C@@H](N)CC(N)=O)CSSC[C@H](NC(=O)[C@H](C(C)C)NC(=O)CNC(=O)[C@H](CC(=O)O)NC(=O)[C@H](Cc4c[nH]cn4)NC(=O)[C@H](CC(C)C)NC3=O)C(=O)N[C@@H](CCSC)C(=O)N[C@@H](Cc3ccc(O)cc3)C(=O)N[C@@H]([C@@H](C)CC)C(=O)N[C@@H](CCC(=O)O)C(=O)N[C@@H](C)C(=O)N[C@@H](CC(C)C)C(=O)N[C@@H](CC(=O)O)C(=O)N[C@@H](CCCCN)C(=O)N[C@@H](Cc3ccc(O)cc3)C(=O)N[C@@H](C)C(=O)N2)CSSC[C@@H](C(=O)N[C@@H](CCC(N)=O)C(=O)N[C@@H](Cc2ccc(O)cc2)C(=O)N[C@@H](CCCNC(=N)N)C(=O)N[C@@H](CC(=O)O)C(=O)N[C@@H](CC(C)C)C(=O)N[C@@H](CCCCN)C(=O)N[C@@H](Cc2c[nH]c3ccccc23)C(=O)N[C@@H](Cc2c[nH]c3ccccc23)C(=O)N[C@@H](CCC(=O)O)C(=O)N[C@@H](CC(C)C)C(=O)N[C@@H](CCCNC(=N)N)C(=O)O)NC(=O)[C@H](CCCNC(=N)N)NC(=O)[C@H](CCC(=O)O)NC(=O)CNC1=O` [EGF, Epidermal Growth Factor], in the series on rabbits (control vs treated), the biochemical parameters result is “within the normal range and no abnormality was observed”; the “growth rate and food consumption” value is “normal & did not differ significantly”; the hematological parameters entry is reported as “no observable changes”. The anti-body response result in the series with rabbits (treated groups) is given as “no observable anti-body response”. For the same compound, in the series with rats (control vs treated), the biochemical parameters entry is “within the normal range and no abnormality was observed”; the “growth rate and food consumption” value is “normal & did not differ significantly”; the hematological parameters entry was “no observable changes”. Also, in the series with rats (treated groups), the anti-body response entry is listed as “no observable anti-body response”.
